Data published in article PMC7616460, “Skraban-Deardorff intellectual disability syndrome-associated mutations in WDR26 impair CTLH E3 complex assembly” (FEBS letters, 2024).

Target: the molecule itself
Assay: cryo-EM structure; focused refinement (Relion v4.0) of the prior map EMD-12545 over the WDR26-YPEL5 region, 6.7 Å; fitted with AlphaFold2 models

B1: WDR26 in the CTLH subcomplex of the cryo-EM map EMD-12545 / EMD-19039 (natural protein, human, UniProt Q9H7D7 1-661, looked up)
chain: MQANGAGGGGGGGGGGGGGGGGGGGQGQTPELACLSAQNGESSPSSSSSAGDLAHANGLLPSAPSAASNNSNSLNVNNGVPGGAAAASSATVAAASATTAASSSLATPELGSSLKKKKRLSQSDEDVIRLIGQHLNGLGLNQTVDLLMQESGCRLEHPSATKFRNHVMEGDWDKAENDLNELKPLVHSPHAIVVRGALEISQTLLGIIVRMKFLLLQQKYLEYLEDGKVLEALQVLRCELTPLKYNTERIHVLSGYLMCSHAEDLRAKAEWEGKGTASRSKLLDKLQTYLPPSVMLPPRRLQTLLRQAVELQRDRCLYHNTKLDNNLDSVSLLIDHVCSRRQFPCYTQQILTEHCNEVWFCKFSNDGTKLATGSKDTTVIIWQVDPDTHLLKLLKTLEGHAYGVSYIAWSPDDNYLVACGPDDCSELWLWNVQTGELRTKMSQSHEDSLTSVAWNPDGKRFVTGGQRGQFYQCDLDGNLLDSWEGVRVQCLWCLSDGKTVLASDTHQRIRGYNFEDLTDRNIVQEDHPIMSFTISKNGRLALLNVATQGVHLWDLQDRVLVRKYQGVTQGFYTIHSCFGGHNEDFIASGSEDHKVYIWHKRSELPIAELTGHTRTVNCVSWNPQIPSMMASASDDGTVRIWGPAPFIDHQNIEEECSSMDS
notes: WDR26, human; the fitted AlphaFold2 model is of isoform 1 (Q9H7D7-1); subcomplex held WDR26, RANBP9, TWA1, ARMC8, GID4 and YPEL5; also called WDR26 dimer
stoichiometry N: 2
